Protein production data for twelve sequences are collected here from a protein production outcome set (Wang et al. 2014).
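Further: failed if final PepcDB status was selected cloned or expressed and not failed if soluble or beyond.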

This data set in a line: label from the status in PepcDB records.
Take “MKRLMFIGPSQCGKTSLTQSLRGEALHYKKTQAIEWSPMAIDTPGEYLENRCLYSALLTSACEADVIALVLNADAQWSPFSPGFTAPMNRPTIGLVTKADLAEPQRISLVAEWLTQAGAQQIFITSALNNSGLDAVLDFLNSKEPLCLTKLEHHHHHH”: the protein production result is “not failed”. Take “MKRLSITVRLTLLFILLLSVAGAGIVWTLYNGLASELKWRDDTTLINRTAQIKQLLIDGVNPDTLPVYFNRMMDVSQDILIIHGDSINKIVNRTNVSDGMLNNIPASETISAAGIYRSIINDTEIDALRINIDEVSPSLTVTVAKLASARHNMLEQYKINSIIICIVAIVLCSVLSPLLIRTGLREIKKLSGVTEALNYNDSREPVEVSALPRELKPLGQALNKMHHALVKDFERLSQFADDLAHELRTPINALLGQNQVTLSQTRSIAEYQKTIAGNIEELENISRLTENILFLARADKNNVLVKLDSLSLNKEVENLLDYLEYLSDEKEICFKVECNQQIFADKILLQRMLSNLIVNAIRYSPEKSRIHITSFLDTNSYLNIDIASPGTKINEPEKLFRRFWRGDNSRHSVGQGLGLSLVKAIAELHGGSATYHYLNKHNVFRITLPQRN”: the protein production result is listed as “failed”. With “MKRLSLLAATAAFLLASPALAESPFWPVQPKNGPVAAELRGAWKSRGYGWIVQFGPDGPQLFHTAGGACYPDPRREPDPDGVLALWRAEGPGVISLTGDPVGTRYQFDRLPNLPTDCISAGGWTPDRIVAFAADTFAELYPRSAERKLDWPARKAKALTQVGPNATDDQLWLAMAGLLSGLDDPHVELHGMVQGARRDLEPGESPTLMRVRAADPSGDERGWLQAYREGILTGLLQGKGRQAANNRIFWGRVDDVGYLNVLTMGAFARNAAPDDPRPLDAVLDEALSAFVGAKAVVVDVSNNRGGYDIISRRIAARFTAQPRVAYAKVPVGAKAPPQVIKVEPSGAVGFTGPVYVVTSDITVSAGETFTLMMKALPNVTLVGGTTRGAFSDQLPKPLPNGWTLALPAELYRTADGRDLEGRGLAPTVPMAVFPDSDLMGGHAKALSSLFATIREGAAAGATR” the entry was “failed”. With “MKRLTPYSWLILIIFSSCLTGNKVASTDKQIESLLSQMTLEEKIGMLHSNTMFSSTGVPRLGIPDLHYSDGPHGVRFEGVANGWESARWDNDACSYLPALSALASTWNRDLAQLYGEVLGAECKARGKHVSLAPGVNIHRSLLNGRNWEYFSEDPFFSGELAVPYIQGVQSQGVASCVKHFALNSQAYNQYKVSVEVDERTLHEIYLPAFEAAIQRGGAMAAMAAYNKVRGLWCTESPYLLDTLLRDELGFDGLVVSDWNAVHNTERTALCGMDVEMGTSIKENGKYAFNKYYLADPLLKKVRNGEIPEEAVNKKVRNILKLMIRLDLIGQAPYDTTGMAAKLAIPAHTKAAREIAEESLVLLKNSKDMLPLDPAQYKNVAVIGANATEVFAAGGGSTKLKAKYEVTPLEGLQNLLDGKARIEYAPGYQLSKKAYKVGHWFTNEFDKSDEELYKKAINTAAQAELVIYIGGTSHEHGSDCEGYDKPNLKLPYQQDRLLKGILEVNPNTVVVLISGGPVEIGEWYNDATALLHGSFLGMEGGNALARTLFGEVNPSGKLTTTWCKRLEDMPDHVFGEYPGINDTVRFKEGLMVGYRYFDTYRVVPLFEFGYGLSYTTFTYSNIKMKPVWKDSDTEFAVSFTVTNTGKRYGQEIAQLYLHQNKCSVERPFKELKGFTKVGLKPGESKQVTIKLPRRALQYYDTESKRWKDEPGMFTVLIGASSRDIKLQKDFELKK”, the protein production entry was “failed”. With “MKRMLAWLYAPLVFAGFIGAGVWWMSAGPASASGLLGVFGAALGVSFLAEWCLPYEPGWNRSQGDRLRDSLHALVNESLNALGLLALPGLVALLAHDGLWPQGWPLWGQLLLAIVIADCGITLAHYASHRLAWLWRLHAVHHSVQRMYGFNGLLKHPLHQLIEASAGLLPLVLLGIPLPVAQLLALAIAVQLLLQHSNVDMRLGPLRWIFAWAPVHRFHHMKYGRAGDVNFGLFFNLWDWLLGTAFYRDDYCMRQGDLGIGSRADYPVDYWPQLLEPFKAQRYGAEPVVPEQLRRRVRPASEA” the entry was “failed”; with “MKRNSSIDLMKSCAIFFVISVHFLLNSGFYDMTIHSTLAIFWIGIRTILITCVPLFLVATGFLMNRKELSAQYVLGIVPVIISYIGISLLVWGVLSLVGKGSDFSTAINGIFDYSTDSYSWYVEMYLGLYLFIPLLNIIWNYKKEIKNYHLYIVFIASLLTFLPSLLNSFGKVIPDYWQICYPVSYYFIGAYLYTYQNEIKKISIGKLVTAFLSALTIFTLTDTFASWNQEFQWLDHNDYFGYQTAIMTVLVIAILWRTPIPKWSVRLLKALSTATLTIYLISDLTDQFVYGFFKHEIPNLSQRVIAGPIIIPVAFTSAALLGIFVGKVLNIPFKRKKERKEN”, “failed”; with “MKRRRRNSKLKFEETSDQSPTSTAEFSFSLTKIAVSQICQSIGYKATDASALNTLTLTTTKFLQSLAELASSFSNTANRTEVNLFDIVNGLQDIALSTSDCFPGGSTVHDIESQCLIKSAVLRNLSDFVTYAPEIPFAKPLPRRERDGSFGGDLDHVAVTRSVDVTSVPAWLPPFPDSSLCSDRCSKDNRSDHLWENSDSVIRREILPESLKSKSGGRLPVMRDKVRFKMEQRDWSSGGDTRLERSRDNNNGESGRDLEVKKKIREGYTYCAGEWPF”, “failed”. As for “MKRSDKYTDDYIEQRYESQRPHYNTYYQPIGKPPKKKKSKRIFLKAIITILILLIIFFGVMYFISSRANVDDLKSIENKSDFVATENMPNYVKGAFISMEDERFYKHHGFDIKGTTRALFSTISDRDVQGGSTITQQVVKNYYYDNERSFTRKIKELFVARKVEKQYSKNQILSFYMNNIYYGDNQYTVEGAANHYFGVTVDKNNSNMSQISVLQSAILASKVNAPSVYDVNDMSNNYINRVKTNLEKMKQQNFISESQYQEAMSQLGN”, the protein production result was “not failed”.

In the case of “MKRSTRFQQRSLFAIGGLGLLIGVAFVLVQFRATLIFTVFLYYASRPIYRKLESVSTPSYFSEYSLPYRRQILAVTTISVFLLPFLLLFTYTLALVVPAVQQFIGQNDLASGYLSAIQSADSGGLPEPIAGLQISDLLDMSPEEIVTILNAPSVRTWIEQTLGTLISSIGVFADVGIQAFLLLSGTYYLLTDGPRLSRWLFDHFDESGVVESYAIAVDDELSSILFGNILNALVTGIIGIVVFSAYNSISPAAVQVPFAPLVGALTGAGSLIPVVGMKIVYFPVGAILTVGAVASGQATAIGYVLLFLILAFVVVDTIPDFLIRPYVSGNRTHVGLLMFAYILGPIVFGAYGIFLGPILLVLVAQFFRTVAPYVATGEPPDQSKLYEY”, the protein production entry is “failed”. Turning to “MKRTKKAFVLVLSLSMLASISPQTVLASGGNTDRYEEVHGTQAIVKDAEVHVYTTKNGGTVQLTGSNGIETTFTQGIGYREYKATPADGWRWKGWTYEQLYQGEDLGNRTDYGWGRRYSFSNDGSDWKSPYDGIGQTISVNRLLTTGETVGNKITYNLYADFNPTINATADTGGTIEDSGITEVEYGTNKQYTVTADTGKDIASVTVDGNSVLAETKKDSFTYTFENVTEPHTIHATFTDEIHTVSYEFVSGTAGEALPEEVSNLCPSSSTYTYGTEVTPTQPTSTSVKVSDGVWTFKGYDKENQTVTSDVKFTGTWTFAKNAVTINHIPTITAGDKTITVGDSFDPKKDVTASDKEDGSLTDRIEVINNTVNTSKVGTYTVTYKVTDKDGASVTKSITVTVKEKDKEEQTTVPTKPDNGNSTSTDTKKDASKTGQTVKTGDTSNVLLWSTIAILSLAGVVTVLFIKRRKSHS”, the protein production result was “failed”. With “MKRWTTLLIVICMLGITIPAMGAMSISKMRQNTRFLTDRMAYELKLTPRQYNDVYEVNYDFINNVRYLMDDVVRGYDYALERYYDFLDVRNDDLRWILSSAQYRRFMRAEHFYRPIYAHENKWHFRIYLVYNNVNFFYYGKPHHYASYCGGHYRTHFNNVSYYKTHYRDHYRHDVYDGHYRIRHDRMTYDMHRRRDFNIAVRPPQKEHHRPATPPQTRPNRPQIHPDRPSGDHRRPSVPQARPDRPKKDQNNKHDGRPSRRGQNSQVDKDRHENRRITPSGRDVRRGNGKKEKDSDRSGGSNKSNSKERTAVRMRTV”, the protein production entry is on record as “failed”.

With “MKSADGLLHVAFTPSKATGKVLASELPEKVGKRSSVLYPASLKAGNDIGVPVQSVDTVLLQQALSAPVLSVASPSAVRAWLHLIQNEEQWSNYVACIGETTASAARRLGLKNVYYPEKPGLEGWVESIMEALGAHADSSNPSSRN”, the protein production entry was “failed”.
